Laboratory results reported in the supplement of paper PMC9112550, “Optimization of the antimicrobial peptide Bac7 by deep mutational scanning” (BMC Biology, 2022).

Tested on: Escherichia coli TOP10
Assay: shrunken log2 fold change of peptide-encoding DNA abundance (4.5 h post-induction vs induction); higher = less antimicrobial activity (less host growth inhibition)
Details: time post-induction: 4.5 h; library: site-saturation at positions 5, 18, 19, 20
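Also: peptides expressed intracellularly from a pBAD plasmid library in pooled LB shake-flask culture, induced with 0.3% L-arabinose, DNA abundance read by NGS, three biological replicates, DESeq2 with apeglm shrinkage.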

RRIRYRPPRLPRPRPRPKIVPRP
shrunken log2 fold change: -0.188

RRIRPRPPRLPRPRPRPQASPRP
shrunken log2 fold change: -0.137

RRIRKRPPRLPRPRPRPYYQPRP
shrunken log2 fold change: -0.194

RRIRVRPPRLPRPRPRPFNQPRP
shrunken log2 fold change: -0.19

RRIRKRPPRLPRPRPRPSHCPRP
shrunken log2 fold change: -0.578

RRIRMRPPRLPRPRPRPNVCPRP
shrunken log2 fold change: -0.00865

RRIRPRPPRLPRPRPRPGWQPRP
shrunken log2 fold change: 0.0481

RRIRPRPPRLPRPRPRPEREPRP
shrunken log2 fold change: 0.49

RRIRDRPPRLPRPRPRPKYKPRP
shrunken log2 fold change: -0.739

RRIRTRPPRLPRPRPRPVLTPRP
shrunken log2 fold change: 1.21

RRIRQRPPRLPRPRPRPALCPRP
shrunken log2 fold change: 0.171

RRIRVRPPRLPRPRPRPDIGPRP
shrunken log2 fold change: -0.173

RRIRKRPPRLPRPRPRPEDAPRP
shrunken log2 fold change: 0.054

RRIRERPPRLPRPRPRPCIHPRP
shrunken log2 fold change: -0.229

RRIRERPPRLPRPRPRPLHCPRP
shrunken log2 fold change: 0.0821

RRIRDRPPRLPRPRPRPDDHPRP
shrunken log2 fold change: 0.023

RRIRHRPPRLPRPRPRPPWDPRP
shrunken log2 fold change: 0.131

RRIRRRPPRLPRPRPRPGKVPRP
shrunken log2 fold change: -0.037

RRIRPRPPRLPRPRPRPQGNPRP
shrunken log2 fold change: -0.146

RRIRKRPPRLPRPRPRPEPPPRP
shrunken log2 fold change: 2.92

RRIRSRPPRLPRPRPRPCAVPRP
shrunken log2 fold change: -0.255

RRIRLRPPRLPRPRPRPWMKPRP
shrunken log2 fold change: -0.249

RRIRVRPPRLPRPRPRPHFLPRP
shrunken log2 fold change: 0.187

RRIRQRPPRLPRPRPRPRTPPRP
shrunken log2 fold change: 0.676

RRIRLRPPRLPRPRPRPACAPRP
shrunken log2 fold change: 0.541

RRIRYRPPRLPRPRPRPEGEPRP
shrunken log2 fold change: 0.199

RRIRQRPPRLPRPRPRPFALPRP
shrunken log2 fold change: -0.103

RRIRKRPPRLPRPRPRPIGWPRP
shrunken log2 fold change: 0.7

RRIRQRPPRLPRPRPRPHVIPRP
shrunken log2 fold change: -0.186

RRIRARPPRLPRPRPRPRGMPRP
shrunken log2 fold change: 0.32

RRIRGRPPRLPRPRPRPDFYPRP
shrunken log2 fold change: 0.232

RRIRYRPPRLPRPRPRPIRRPRP
shrunken log2 fold change: -0.0923

RRIRYRPPRLPRPRPRPPEDPRP
shrunken log2 fold change: -0.145

RRIRDRPPRLPRPRPRPQPWPRP
shrunken log2 fold change: 0.11

RRIRHRPPRLPRPRPRPYLEPRP
shrunken log2 fold change: -0.0394

RRIRTRPPRLPRPRPRPQYCPRP
shrunken log2 fold change: -0.0968

RRIRSRPPRLPRPRPRPPQIPRP
shrunken log2 fold change: 0.138

RRIRMRPPRLPRPRPRPYQHPRP
shrunken log2 fold change: 0.0551

RRIRLRPPRLPRPRPRPHPTPRP
shrunken log2 fold change: -0.094

RRIRKRPPRLPRPRPRPWCFPRP
shrunken log2 fold change: 0.164

RRIRVRPPRLPRPRPRPPDDPRP
shrunken log2 fold change: 0.107

RRIRCRPPRLPRPRPRPRIGPRP
shrunken log2 fold change: 0.016

RRIRRRPPRLPRPRPRPSEDPRP
shrunken log2 fold change: 0.0524

RRIRVRPPRLPRPRPRPSSYPRP
shrunken log2 fold change: -0.139

RRIRIRPPRLPRPRPRPDFDPRP
shrunken log2 fold change: -0.137

RRIRLRPPRLPRPRPRPAFHPRP
shrunken log2 fold change: -0.0947

RRIRCRPPRLPRPRPRPTHLPRP
shrunken log2 fold change: 0.232

RRIRVRPPRLPRPRPRPMMHPRP
shrunken log2 fold change: -0.365

RRIRSRPPRLPRPRPRPCYIPRP
shrunken log2 fold change: -0.582

RRIRARPPRLPRPRPRPDPDPRP
shrunken log2 fold change: 1.3

RRIRFRPPRLPRPRPRPCGEPRP
shrunken log2 fold change: -0.0646

RRIRPRPPRLPRPRPRPNNMPRP
shrunken log2 fold change: -0.412

RRIRERPPRLPRPRPRPYPVPRP
shrunken log2 fold change: -0.224

RRIRTRPPRLPRPRPRPFIAPRP
shrunken log2 fold change: -0.589

RRIRARPPRLPRPRPRPCYYPRP
shrunken log2 fold change: -0.508

RRIRVRPPRLPRPRPRPSYCPRP
shrunken log2 fold change: -0.18

RRIRDRPPRLPRPRPRPGVHPRP
shrunken log2 fold change: -0.0373

RRIRWRPPRLPRPRPRPVVIPRP
shrunken log2 fold change: -0.101

RRIRKRPPRLPRPRPRPLIGPRP
shrunken log2 fold change: 0.28

RRIRSRPPRLPRPRPRPLENPRP
shrunken log2 fold change: -0.0294

RRIRIRPPRLPRPRPRPVQWPRP
shrunken log2 fold change: 0.0754

RRIRPRPPRLPRPRPRPVCGPRP
shrunken log2 fold change: 0.208

RRIRDRPPRLPRPRPRPCFDPRP
shrunken log2 fold change: 0.581

RRIRVRPPRLPRPRPRPQNMPRP
shrunken log2 fold change: -0.465

RRIRHRPPRLPRPRPRPKYPPRP
shrunken log2 fold change: 0.0718

RRIRHRPPRLPRPRPRPMGVPRP
shrunken log2 fold change: -0.00663

RRIRMRPPRLPRPRPRPQNLPRP
shrunken log2 fold change: 0.12

RRIRPRPPRLPRPRPRPFPQPRP
shrunken log2 fold change: 0.54

RRIRHRPPRLPRPRPRPTGFPRP
shrunken log2 fold change: 0.0428

RRIRHRPPRLPRPRPRPAIYPRP
shrunken log2 fold change: -0.798

RRIRVRPPRLPRPRPRPIEHPRP
shrunken log2 fold change: -0.168

RRIRRRPPRLPRPRPRPTTAPRP
shrunken log2 fold change: 0.541

RRIRQRPPRLPRPRPRPRILPRP
shrunken log2 fold change: -0.275

RRIRVRPPRLPRPRPRPKWEPRP
shrunken log2 fold change: 0.00343

RRIRYRPPRLPRPRPRPHRVPRP
shrunken log2 fold change: -0.248

RRIRRRPPRLPRPRPRPRGIPRP
shrunken log2 fold change: 0.169

RRIRGRPPRLPRPRPRPCWWPRP
shrunken log2 fold change: 0.554

RRIRYRPPRLPRPRPRPACFPRP
shrunken log2 fold change: -0.166

RRIRQRPPRLPRPRPRPVIQPRP
shrunken log2 fold change: -0.065

RRIRYRPPRLPRPRPRPRGYPRP
shrunken log2 fold change: -0.365

RRIRCRPPRLPRPRPRPPVAPRP
shrunken log2 fold change: 0.443

RRIRRRPPRLPRPRPRPEYNPRP
shrunken log2 fold change: -0.103

RRIRVRPPRLPRPRPRPQHMPRP
shrunken log2 fold change: -0.23

RRIRPRPPRLPRPRPRPMYNPRP
shrunken log2 fold change: -0.639

RRIRFRPPRLPRPRPRPKHTPRP
shrunken log2 fold change: -0.0698

RRIRTRPPRLPRPRPRPVMWPRP
shrunken log2 fold change: -0.11

RRIRFRPPRLPRPRPRPYWEPRP
shrunken log2 fold change: -0.391

RRIRCRPPRLPRPRPRPTELPRP
shrunken log2 fold change: -0.106

RRIRSRPPRLPRPRPRPMDVPRP
shrunken log2 fold change: -0.02

RRIRFRPPRLPRPRPRPKYMPRP
shrunken log2 fold change: -0.836

RRIRPRPPRLPRPRPRPGRYPRP
shrunken log2 fold change: 0.37
